T1: HPV 16 E6 peptide on HLA-A*02:01 (human)
T1 peptide: TIHDIILECV

T2: HPV 16 E7 peptide on HLA-A*02:01 (human)
T2 peptide: YMLDLQPET

B1: TCR 65 (TCR, V domains shown)
Valpha: EDQVTQSPEALRLQEGESSSLNCSYTVSGLRGLFWYRQDPGKGPEFLFTLYSAGEEKEKERLKATLTKKESFLHITAPKPEDSATYLCAVQAERGSTLGRLYFGRGTQLTVWP
Vbeta: DVKVTQSSRYLVKRTGEKVFLECVQDMDHENMFWYRQDPGLGLRLIYFSYDVKMKEKGDIPEGYSVSREKKERFSLILESASTNQTSMYLCASSLWGRRNTGELFFGEGSRLTVL
B2: TCR 62 (TCR, V domains shown)
Valpha: AQTVTQSQPEMSVQEAETVTLSCTYDTSENNYYLFWYKQPPSRQMILVIRQEAYKQQNATENRFSVNFQKAAKSFSLKISDSQLGDTAMYFCALYTYKYIFGTGTRLKVLA
Vbeta: EAGVAQSPRYKIIEKRQSVAFWCNPISGHATLYWYQQILGQGPKLLIQFQNNGVVDDSQLPKDRFSAERLKGVDSTLKIQPAKLEDSAVYLCASSLDTRGSSYNEQFFGPGTRLTVL

Tests used:
[1] = target: T1, HPV 16 E6 peptide on HLA-A*02:01; test: multimer staining
[2] = target: T2, HPV 16 E7 peptide on HLA-A*02:01; test: multimer staining

Binder | binding result [1] | binding result [2]
B1 | recognises | no recognition
B2 | no recognition | recognises
